Assay results published in paper PMC4669440.

Assay: micro-CT of femur
Details: glycan lost; control: WT mice

B1: Dentin matrix protein 1 (DMP1): S89G (protein)
parent chain: MKTVILLVFLWGLSCALPVARYHNTESESSEERTGDLAGSPPPPTNSESSEESQASPEGQANSDHTDSSESGEELGYDRGQYRPAGGLSKSTGTGADKEDDEDDSGDDTFGDEDNDLGPEEGQWGGPSKLDSDEDSTDTTQSSEDSTSQENSAQDTPSDSKDHDSEDEADSRPEAGDSTQDSESEEQRVGGGSEGESSHGDGSEFDDEGMQSDDPESTRSDRGHARMSSAGIRSEESKGDHEPTSTQDSDDSQSVEFSSRKSFRRSHVSEEDYRGELTDSNSRETQSDSTEDTASKEESRSESQEDTAESQSQEDSPEGQDPSSESSEEAGEPSQESSSESQEGVTSESRGDNPDNTSQAGDQEDSESSEEDSLNTFSSSESQSTEEQADSESNESLSLSEESQESAQDGDSSSQEGLQSQSASTESRSQESQSEQDSRSEEDSDSQDSSRSKEESNSTGSASSSEEDIRPKNMEADSRKLIVDAYHNKPIGDQDDNDCQDGY
  other: bone material density: increases
